“And” between values parts separate entries of the source, which are not always exact repeats. Identical values can stand only once.
Tests used:
[1] = target: HIV-1 matrix protein p17 (wild type) (HIV-1) (UniProt P03347); experiment: cross-linking; p17 (2 μg/ml in 20 μl) 2 h at 37 °C in PBS alone or with heparin, then 1 mM BS3 for 2 h at 37 °C; SDS-PAGE and Western blot with anti-p17; bands of 17, 34, 51 and 68 kDa quantified
[2] = target: HIV-1 matrix protein p17 (wild type) (HIV-1) (UniProt P03347); experiment: SPR; p17 immobilised on a CM5 sensorchip by amine coupling (2,500 RU); free p17 (15.7-2000 nM) injected in HBS-EP (10 mM HEPES pH 7.4, 150 mM NaCl, 3 mM EDTA, 0.005% P20) for 2 min; BIAcore X 100; Kd from equilibrium RU (saturation curve, Scatchard) with two softwares; cannot tell dimer, trimer or higher oligomers apart

Substance: HIV-1 matrix protein p17 (wild type) (from UniProt P03347 1-132) (natural protein)
- % of total protein as dimer [1]: 29%
- % of total protein as tetramer [1]: 3%
- % of total protein as trimer [1]: 12%
- % of total protein remaining monomer [1]: 59%
- fold increase of dimer with heparin against no heparin [1]: 2 fold
- fold increase of tetramer with heparin against no heparin [1]: 3.4 fold
- fold increase of trimer with heparin against no heparin [1]: 4.2 fold
- stoichiometry N [1]: 2 and 3 and 4
- Kd [2]: 0.529 µM and 0.665 µM
